{"source": "patent US9176064B2", "about": "“Bisubstrate fluorescent probes for protein kinase CK2” (University of Tartu, priority 2012, dated 2015)", "test_in_all_cases": "Kinase panel residual activity", "assay_type_in_all_cases": "biochemical", "settings_in_all_cases": "compound at 1 micromolar", "key": {"TESK1": {"biological_target": "TESK1 (Homo sapiens, UniProt Q15569)", "sequence (Q15569 whole entry, species assumed)": "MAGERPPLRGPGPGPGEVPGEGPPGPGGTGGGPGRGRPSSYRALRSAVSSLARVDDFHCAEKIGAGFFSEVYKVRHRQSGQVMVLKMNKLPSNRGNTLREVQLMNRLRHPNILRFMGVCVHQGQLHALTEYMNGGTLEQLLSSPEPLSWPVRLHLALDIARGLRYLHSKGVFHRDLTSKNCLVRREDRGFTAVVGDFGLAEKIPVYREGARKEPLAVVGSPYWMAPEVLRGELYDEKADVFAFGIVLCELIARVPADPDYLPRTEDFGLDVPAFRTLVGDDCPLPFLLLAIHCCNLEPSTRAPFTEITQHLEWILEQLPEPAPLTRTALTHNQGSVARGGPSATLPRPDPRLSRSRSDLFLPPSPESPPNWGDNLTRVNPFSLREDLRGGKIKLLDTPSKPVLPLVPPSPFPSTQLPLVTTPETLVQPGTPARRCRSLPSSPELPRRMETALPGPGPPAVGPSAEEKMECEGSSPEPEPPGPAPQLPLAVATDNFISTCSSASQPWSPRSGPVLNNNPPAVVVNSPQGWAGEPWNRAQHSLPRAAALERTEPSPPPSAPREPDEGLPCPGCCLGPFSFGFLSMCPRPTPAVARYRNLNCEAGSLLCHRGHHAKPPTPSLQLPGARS"}, "EPH-B1": {"biological_target": "T1, EPH-B1 (Homo sapiens, UniProt P54762)", "T1 sequence (P54762 18-984)": "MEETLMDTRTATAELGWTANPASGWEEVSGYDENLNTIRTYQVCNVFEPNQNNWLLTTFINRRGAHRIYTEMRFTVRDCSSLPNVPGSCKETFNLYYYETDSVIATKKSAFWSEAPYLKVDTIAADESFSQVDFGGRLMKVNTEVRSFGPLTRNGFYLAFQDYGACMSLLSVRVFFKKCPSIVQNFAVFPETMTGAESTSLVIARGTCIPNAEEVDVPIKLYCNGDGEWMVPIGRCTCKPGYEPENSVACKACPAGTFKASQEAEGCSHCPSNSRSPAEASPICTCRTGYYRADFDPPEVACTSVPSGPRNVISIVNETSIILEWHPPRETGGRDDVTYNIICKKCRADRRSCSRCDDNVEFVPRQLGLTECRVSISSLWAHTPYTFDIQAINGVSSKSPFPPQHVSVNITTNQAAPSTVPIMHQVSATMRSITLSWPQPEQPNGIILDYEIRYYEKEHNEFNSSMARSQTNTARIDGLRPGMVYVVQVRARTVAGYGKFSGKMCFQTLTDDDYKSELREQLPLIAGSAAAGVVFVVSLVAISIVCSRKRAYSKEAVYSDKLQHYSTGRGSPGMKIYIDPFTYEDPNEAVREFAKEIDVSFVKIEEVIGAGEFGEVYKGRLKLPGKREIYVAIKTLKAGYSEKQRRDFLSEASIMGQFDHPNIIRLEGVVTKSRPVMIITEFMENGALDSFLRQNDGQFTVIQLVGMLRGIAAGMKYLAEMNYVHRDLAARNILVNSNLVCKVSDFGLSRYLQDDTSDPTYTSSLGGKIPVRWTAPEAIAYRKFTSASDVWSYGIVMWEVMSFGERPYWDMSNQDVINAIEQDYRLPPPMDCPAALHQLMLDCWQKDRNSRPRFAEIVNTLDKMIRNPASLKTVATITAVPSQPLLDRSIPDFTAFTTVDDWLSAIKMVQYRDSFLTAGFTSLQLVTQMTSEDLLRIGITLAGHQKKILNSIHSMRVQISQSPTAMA"}, "MKK6": {"biological_target": "T2, MKK6 (Homo sapiens, UniProt P52564)", "T2 sequence (P52564 1-334)": "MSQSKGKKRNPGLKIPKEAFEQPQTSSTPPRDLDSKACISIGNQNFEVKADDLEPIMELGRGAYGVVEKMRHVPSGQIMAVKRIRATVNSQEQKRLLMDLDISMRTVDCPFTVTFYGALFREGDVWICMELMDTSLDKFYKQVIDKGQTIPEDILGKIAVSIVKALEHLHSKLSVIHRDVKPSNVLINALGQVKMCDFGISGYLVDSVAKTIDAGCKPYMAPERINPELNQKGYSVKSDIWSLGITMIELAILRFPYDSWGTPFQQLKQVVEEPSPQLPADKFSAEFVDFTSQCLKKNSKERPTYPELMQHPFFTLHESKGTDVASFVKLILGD"}, "MST4": {"biological_target": "MST4 (Homo sapiens, UniProt Q9P289)", "sequence (Q9P289 whole entry, species assumed)": "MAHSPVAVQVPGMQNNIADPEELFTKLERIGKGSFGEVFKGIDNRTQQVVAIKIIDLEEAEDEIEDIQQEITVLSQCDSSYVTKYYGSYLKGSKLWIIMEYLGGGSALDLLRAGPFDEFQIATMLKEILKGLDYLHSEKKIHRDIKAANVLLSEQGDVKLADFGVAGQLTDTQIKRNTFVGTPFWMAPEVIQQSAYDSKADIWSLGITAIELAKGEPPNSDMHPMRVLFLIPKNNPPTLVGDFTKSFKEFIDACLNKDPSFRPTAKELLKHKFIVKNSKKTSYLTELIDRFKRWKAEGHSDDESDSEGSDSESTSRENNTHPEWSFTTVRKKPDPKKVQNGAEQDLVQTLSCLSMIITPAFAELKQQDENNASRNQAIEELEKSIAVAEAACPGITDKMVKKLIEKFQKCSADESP"}, "ASK1": {"biological_target": "T3, ASK1 (Homo sapiens, UniProt Q99683)", "T3 sequence (Q99683 1-1374)": "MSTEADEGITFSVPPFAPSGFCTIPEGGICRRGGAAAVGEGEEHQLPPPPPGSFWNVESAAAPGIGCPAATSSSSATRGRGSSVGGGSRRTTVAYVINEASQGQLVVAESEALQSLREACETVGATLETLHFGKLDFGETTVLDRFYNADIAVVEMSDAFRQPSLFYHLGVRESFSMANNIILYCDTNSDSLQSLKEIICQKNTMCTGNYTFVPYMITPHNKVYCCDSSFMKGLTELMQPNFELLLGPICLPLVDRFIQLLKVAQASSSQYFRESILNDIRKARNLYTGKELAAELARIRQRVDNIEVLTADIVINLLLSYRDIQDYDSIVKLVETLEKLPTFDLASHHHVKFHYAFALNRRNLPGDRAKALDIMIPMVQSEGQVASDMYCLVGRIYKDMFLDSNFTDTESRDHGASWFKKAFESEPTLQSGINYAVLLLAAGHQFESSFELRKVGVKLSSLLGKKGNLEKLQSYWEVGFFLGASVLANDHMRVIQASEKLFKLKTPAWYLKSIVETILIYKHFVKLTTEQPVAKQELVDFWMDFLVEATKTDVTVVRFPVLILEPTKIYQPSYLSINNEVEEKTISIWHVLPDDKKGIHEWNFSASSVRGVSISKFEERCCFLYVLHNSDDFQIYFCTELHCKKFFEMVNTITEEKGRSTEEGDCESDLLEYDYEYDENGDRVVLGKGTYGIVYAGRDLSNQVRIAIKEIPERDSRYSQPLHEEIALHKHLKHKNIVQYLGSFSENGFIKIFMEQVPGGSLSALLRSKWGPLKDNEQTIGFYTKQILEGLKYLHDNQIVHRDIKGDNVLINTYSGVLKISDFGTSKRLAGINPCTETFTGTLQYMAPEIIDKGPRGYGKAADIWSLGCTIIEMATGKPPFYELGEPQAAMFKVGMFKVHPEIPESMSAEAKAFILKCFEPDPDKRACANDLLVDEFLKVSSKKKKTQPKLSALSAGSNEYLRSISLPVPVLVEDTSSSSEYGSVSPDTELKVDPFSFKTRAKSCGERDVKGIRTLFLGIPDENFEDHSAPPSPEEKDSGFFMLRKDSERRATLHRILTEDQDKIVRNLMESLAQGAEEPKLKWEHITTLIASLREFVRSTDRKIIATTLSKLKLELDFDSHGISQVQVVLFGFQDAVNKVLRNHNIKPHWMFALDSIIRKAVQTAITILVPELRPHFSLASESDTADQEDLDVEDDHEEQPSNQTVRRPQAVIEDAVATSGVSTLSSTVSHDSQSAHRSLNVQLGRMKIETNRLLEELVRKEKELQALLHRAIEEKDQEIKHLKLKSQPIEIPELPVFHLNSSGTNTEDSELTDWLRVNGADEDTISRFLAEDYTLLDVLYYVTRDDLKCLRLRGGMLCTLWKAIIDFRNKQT"}, "PIM3": {"biological_target": "PIM3 (Homo sapiens, UniProt Q86V86)"}, "p38a MAPK": {"biological_target": "p38a MAPK (Homo sapiens, UniProt Q16539)", "sequence (Q16539 whole entry)": "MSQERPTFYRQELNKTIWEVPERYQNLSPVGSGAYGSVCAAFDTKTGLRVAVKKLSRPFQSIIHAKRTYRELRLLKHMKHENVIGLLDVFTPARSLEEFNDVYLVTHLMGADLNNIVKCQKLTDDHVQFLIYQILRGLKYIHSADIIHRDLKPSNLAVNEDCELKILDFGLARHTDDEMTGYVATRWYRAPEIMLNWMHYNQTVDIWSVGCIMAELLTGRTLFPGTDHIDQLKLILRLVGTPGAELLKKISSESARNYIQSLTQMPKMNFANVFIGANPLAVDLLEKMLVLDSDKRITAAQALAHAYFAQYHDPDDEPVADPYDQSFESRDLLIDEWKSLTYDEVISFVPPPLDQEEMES"}, "TrkA": {"biological_target": "TrkA (Homo sapiens, UniProt P04629)", "sequence (P04629 33-796, species assumed)": "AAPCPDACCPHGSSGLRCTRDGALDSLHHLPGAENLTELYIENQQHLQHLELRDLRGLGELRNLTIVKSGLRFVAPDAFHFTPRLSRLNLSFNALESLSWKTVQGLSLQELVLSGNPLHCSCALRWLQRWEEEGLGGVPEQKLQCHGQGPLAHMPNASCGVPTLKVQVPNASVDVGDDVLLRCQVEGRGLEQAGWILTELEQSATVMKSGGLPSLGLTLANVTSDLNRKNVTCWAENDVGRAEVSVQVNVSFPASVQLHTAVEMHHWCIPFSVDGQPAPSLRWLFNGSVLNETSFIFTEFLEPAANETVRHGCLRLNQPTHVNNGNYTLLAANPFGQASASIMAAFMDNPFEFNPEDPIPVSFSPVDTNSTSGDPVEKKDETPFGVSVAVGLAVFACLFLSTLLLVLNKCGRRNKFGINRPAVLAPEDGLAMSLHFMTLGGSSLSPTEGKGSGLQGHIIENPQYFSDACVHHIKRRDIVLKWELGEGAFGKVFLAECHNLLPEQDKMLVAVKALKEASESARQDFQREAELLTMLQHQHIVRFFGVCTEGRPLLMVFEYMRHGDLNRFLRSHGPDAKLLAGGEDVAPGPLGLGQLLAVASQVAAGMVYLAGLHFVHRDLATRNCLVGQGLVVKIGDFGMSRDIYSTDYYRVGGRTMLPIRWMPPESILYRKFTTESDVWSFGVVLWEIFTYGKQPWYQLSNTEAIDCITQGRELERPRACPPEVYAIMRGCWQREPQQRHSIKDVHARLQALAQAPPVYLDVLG"}, "EPH-A4": {"biological_target": "EPH-A4 (Homo sapiens, UniProt P54764)", "sequence (P54764 20-986, species assumed)": "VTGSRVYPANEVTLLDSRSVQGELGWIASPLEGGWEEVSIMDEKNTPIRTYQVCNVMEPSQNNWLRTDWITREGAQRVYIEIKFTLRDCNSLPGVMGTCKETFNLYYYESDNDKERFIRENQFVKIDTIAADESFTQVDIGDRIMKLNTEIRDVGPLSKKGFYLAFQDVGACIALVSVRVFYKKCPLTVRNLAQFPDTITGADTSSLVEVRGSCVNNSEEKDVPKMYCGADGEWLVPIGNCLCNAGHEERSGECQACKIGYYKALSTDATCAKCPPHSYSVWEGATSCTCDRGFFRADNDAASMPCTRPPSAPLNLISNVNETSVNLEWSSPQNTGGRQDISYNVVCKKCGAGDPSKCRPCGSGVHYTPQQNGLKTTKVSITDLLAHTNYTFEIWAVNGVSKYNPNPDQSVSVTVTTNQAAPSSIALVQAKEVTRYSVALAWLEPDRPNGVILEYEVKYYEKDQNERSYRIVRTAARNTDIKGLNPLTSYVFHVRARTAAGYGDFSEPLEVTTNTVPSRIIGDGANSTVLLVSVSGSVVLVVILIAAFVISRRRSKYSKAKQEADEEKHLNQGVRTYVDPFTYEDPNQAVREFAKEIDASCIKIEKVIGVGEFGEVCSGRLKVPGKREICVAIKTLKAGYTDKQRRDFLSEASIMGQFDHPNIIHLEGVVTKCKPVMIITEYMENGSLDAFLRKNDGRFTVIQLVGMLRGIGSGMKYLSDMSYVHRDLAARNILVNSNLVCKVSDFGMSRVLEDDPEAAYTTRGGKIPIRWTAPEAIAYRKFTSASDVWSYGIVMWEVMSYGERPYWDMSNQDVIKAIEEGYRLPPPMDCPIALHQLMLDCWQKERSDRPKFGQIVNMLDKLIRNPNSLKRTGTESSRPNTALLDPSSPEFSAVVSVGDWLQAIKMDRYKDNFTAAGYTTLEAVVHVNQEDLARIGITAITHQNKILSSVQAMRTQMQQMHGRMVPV"}}, "note": "Where a SMILES comes first, the peptide text is derived from it. [ ]: non-standard residue; d: D form. The star is where a group is joined. X1 = O=C(CCCCCCCn1cnc2c(Br)c(Br)c(Br)c(Br)c21)*"}
{"compound": "NCCCC[C@H](NC(=O)[C@H](CC(=O)O)NC(=O)[C@H](CC(=O)O)NC(=O)[C@H](CC(=O)O)NC(=O)[C@H](CC(=O)O)NC(=O)[C@H](CC(=O)O)NC(=O)[C@@H](CC(=O)O)NC(=O)CCCCCCCn1cnc2c(Br)c(Br)c(Br)c(Br)c21)C(=O)O", "note": "[TBBI-OcA-(D-Asp)-(L-Asp)5-(L-Lys)-OH] (X1-[dD]DDDDDK-OH)", "values": [{"measurement": "remaining activity at 1 µM", "setting": "TESK1", "result": 81, "unit": "%"}, {"measurement": "remaining activity at 1 µM", "setting": "EPH-B1", "result": 102, "unit": "%"}, {"measurement": "remaining activity at 1 µM", "setting": "MKK6", "result": 82, "unit": "%"}, {"measurement": "remaining activity at 1 µM", "setting": "MST4", "result": 114, "unit": "%"}, {"measurement": "remaining activity at 1 µM", "setting": "ASK1", "result": 114, "unit": "%"}, {"measurement": "remaining activity at 1 µM", "setting": "PIM3", "result": 59, "unit": "%"}, {"measurement": "remaining activity at 1 µM", "setting": "p38a MAPK", "result": 116, "unit": "%"}, {"measurement": "remaining activity at 1 µM", "setting": "TrkA", "result": 111, "unit": "%"}, {"measurement": "remaining activity at 1 µM", "setting": "EPH-A4", "result": 117, "unit": "%"}]}
